Results as given in article PMC6366716.

Target: Fbw7α (UniProt Q969H0)
Assay: anti-HA co-IP, anti-FLAG blot
Settings: reference: wild-type HA-SV40 LT; sites T701

## SV40 LT (from UniProt P03070) HA-SV40 LT T701A
  binding against the reference: lost
